Test results published in patent publication US20060019342A1 (AstraZeneca / MedImmune, published 2006).

Legend:
EphA2-Fc [1] = target: T1, EphA2-Fc (UniProt P29317 25-534, limits assumed); test: SPR (BIAcore 3000), EphA2-Fc immobilized on CM5 chip, soluble IgG, 1:1 Langmuir fit; below the limit of detection
T1 construct: Amine-coupled to a CM5 chip; not shown: Fc part
Experimental: (§1) The interaction of soluble 12G3, 4C10, 12G3/Mut and 4C10/Mut with immobilized EphA2-Fc was monitored by surface plasmon resonance detection using a BIAcore 3000 instrument (Pharmacia Biosensor, Uppsala, Sweden). EphA2-Fc was coupled to the dextran matrix of a CM5 sensor chip (Pharmacia Biosensor) using an Amine Coupling Kit as described (Johnsson et al. supra) at a surface density of 162 RU. IgGs were diluted in 0.01 M HEPES pH 7.4 containing 0.15 M NaCl, 3 mM EDTA and 0.005% P20. All subsequent dilutions were made in the same buffer. All binding experiments were performed at 25° C. with IgG concentrations typically ranging from 100 nM to 0.2 nM at a flow rate of 75 μL/min; data were collected for approximately 20 min and one 1-min pulse of 1M NaCl, 50 mM NaOH was used to regenerate the surfaces. IgGs were also flowed over an uncoated cell and the sensorgrams from these blank runs subtracted from those obtained with EphA2-Fc-coupled chips. Data were fitted to a 1:1 Langmuir binding model. This algorithm calculates both the kₒₙ and the koff, from which the apparent equilibrium dissociation constant, KD, is deduced as the ratio of the two rate constants (koff/kₒₙ).

EphA2-Fc [2] = target: T1, EphA2-Fc; test: SPR (BIAcore 3000), EphA2-Fc immobilized on CM5 chip, soluble IgG, 1:1 Langmuir fit
Experimental: as §1

T1 sequence (P29317 25-534 limits assumed): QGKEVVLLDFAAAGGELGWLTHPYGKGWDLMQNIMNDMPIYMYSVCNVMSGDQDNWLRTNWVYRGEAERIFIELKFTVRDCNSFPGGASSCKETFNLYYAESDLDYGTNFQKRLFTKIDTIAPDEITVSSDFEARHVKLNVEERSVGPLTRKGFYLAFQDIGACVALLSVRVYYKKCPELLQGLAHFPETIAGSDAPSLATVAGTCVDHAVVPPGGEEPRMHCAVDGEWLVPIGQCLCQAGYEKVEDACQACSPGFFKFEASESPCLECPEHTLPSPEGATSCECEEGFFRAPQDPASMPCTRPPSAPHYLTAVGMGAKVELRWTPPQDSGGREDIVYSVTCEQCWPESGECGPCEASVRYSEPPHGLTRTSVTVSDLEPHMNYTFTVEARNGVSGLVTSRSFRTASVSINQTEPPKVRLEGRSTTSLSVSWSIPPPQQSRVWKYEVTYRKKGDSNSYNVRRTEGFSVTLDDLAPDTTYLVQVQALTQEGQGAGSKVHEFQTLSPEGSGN

B1: 12G3/M, heavy chain modified 12G3 (S60A/A61D, Kabat) (antibody, human IgG1, V domains shown)
VH: QMQLVQSGPEVKKPGTSVKVSCKASGFTFDDYSMNWVRQARGQRLEWIGFIRNKANDYTTEYADSVKGRVTITRDMSTSTAYMELSSLRSEDTAVYYCARYPRHHAMDSWGQGTSVTVSS
VL: DIQMTQSPSSLSASVGDRVTITCRASQSISNNLHWYQQKPGKAPKLLIKYAFQSISGVPSRFSGSGSGTDFTFTISSLQPEDFATYYCQQANSWPLTFGGGTKVEIK
notes: The light chain is unaltered; Human IgG1 / kappa; also called 12G3/Mut
Work on B1 yielded a Kd (EphA2-Fc [1]) of less than 0.027 nM, a koff (EphA2-Fc [1]) of less than 5e-06 s⁻¹ and a kon (EphA2-Fc [2]) of 187000 M⁻¹ s⁻¹.

B2: 12G3 humanized anti-EphA2 monoclonal antibody (antibody, human IgG1, V domains shown)
VH: QMQLVQSGPEVKKPGTSVKVSCKASGFTFDDYSMNWVRQARGQRLEWIGFIRNKANDYTTEYSASVKGRVTITRDMSTSTAYMELSSLRSEDTAVYYCARYPRHHAMDSWGQGTSVTVSS
VL: DIQMTQSPSSLSASVGDRVTITCRASQSISNNLHWYQQKPGKAPKLLIKYAFQSISGVPSRFSGSGSGTDFTFTISSLQPEDFATYYCQQANSWPLTFGGGTKVEIK
notes: Expressed as soluble human IgG1 (human gamma 1, human kappa)
B2 was tested, and the Kd (EphA2-Fc [2]) was 0.034 nM, the koff (EphA2-Fc [2]) was 8.49e-06 s⁻¹ and the kon (EphA2-Fc [2]) was 246000 M⁻¹ s⁻¹.

B3: 4C10 humanized anti-EphA2 monoclonal antibody (antibody, human IgG1, V domains shown)
VH: QMQLVQSGPEVKKPGTSVKVSCKASGFTFDDYSMTWVRQARGQRLEWIGFIRNKANAYTTEYSASVKGRVTITRDMSTSTAYMELSSLRSEDTAVYYCARYPRHHAMDSWGQGTSVTVSS
VL: DIQMTQSPSSLSASVGDRVTITCRASQSISNNLHWYQQKPGKAPKLLIKYAFQSISGVPSRFSGSGSGTDFTFTISSLQPEDFATYYCQQSNSWPLTFGGGTKVEIK
notes: Expressed in HEK 293 cells as soluble human IgG1 (human gamma 1 heavy chain, human kappa light chain)
B3 showed a Kd (EphA2-Fc [2]) of 0.095 nM, a koff (EphA2-Fc [2]) of 9.75e-06 s⁻¹ and a kon (EphA2-Fc [2]) of 102000 M⁻¹ s⁻¹.

B4: 4C10/M, heavy chain modified 4C10 (S60A/A61D, Kabat) (antibody, human IgG1, V domains shown)
VH: QMQLVQSGPEVKKPGTSVKVSCKASGFTFDDYSMTWVRQARGQRLEWIGFIRNKANAYTTEYADSVKGRVTITRDMSTSTAYMELSSLRSEDTAVYYCARYPRHHAMDSWGQGTSVTVSS
VL: DIQMTQSPSSLSASVGDRVTITCRASQSISNNLHWYQQKPGKAPKLLIKYAFQSISGVPSRFSGSGSGTDFTFTISSLQPEDFATYYCQQSNSWPLTFGGGTKVEIK
notes: The light chain is unaltered; Human IgG1 / kappa; also called 4C10/Mut
B4 showed a Kd (EphA2-Fc [2]) of 0.093 nM, a koff (EphA2-Fc [2]) of 5.96e-06 s⁻¹ and a kon (EphA2-Fc [2]) of 64100 M⁻¹ s⁻¹.
